Results taken from publication PMC3777949, “Dimerization Mediates Thermo-Adaptation, Substrate Affinity and Transglycosylation in a Highly Thermostable Maltogenic Amylase of Geobacillus thermoleovorans” (PLoS ONE, 2013).

Columns and labels:
[1] = biological target: Gt-Mamy D109A mutant (Geobacillus thermoleovorans)
[2] = biological target: maltogenic amylase of Geobacillus thermoleovorans (Gt-Mamy), recombinant wild type (Geobacillus thermoleovorans); experiment: SEC; Sephacryl S-200 high resolution column, 100 mM sodium phosphate pH 7 with 50 mM NaCl, 0.3 ml/min; masses from a plot of molecular weight vs Ve/Vo against standards

Row | Substance | Ea required for thermal denaturation [1] | T1/2 of thermal inactivation at 80, 90 and 100°C [1] | stoichiometry N [2]
1 | Gt-Mamy D109A mutant (enzyme) | 141 kJ/mol | 44.6 h | 
2 | maltogenic amylase of Geobacillus thermoleovorans (Gt-Mamy), recombinant wild type (enzyme) |  |  | 2
